According to patent publication US8088412B2, “Intralymphatic chemotherapy drug carriers” (priority 2008, dated 2012):
pIC50: −log10 of the molar value. Entries after “also recorded” stand apart in the source; their conditions may differ. Read-outs that look alike come from different tables or passages of the source. Marks after values point to notes of the source that are not given here.

Columns and labels:
[1] = tested on: MDA-MB-468LN human breast cancer cells; assay: Tumor response, breast lymphatic tumor xenograft; type: in vivo, Nude nu/nu mice
Description: Nude nu/nu mice were implanted with 1×10^6 cells (MDA-MB-468LN human breast cancer cells) into the mammary fatpad, after approximately 4 weeks a 100-200 mm^3 tumor had developed in the axillary lymph node package. Animals were randomly divided into four treatment groups of five animals each: intravenous saline, s.q. HA, intravenous cisplatin, or s.q. HA-cisplatin. At this point, doses were administered to the animals. In the HA-cisplatin and the HA groups, HA-cisplatin (3.3 mg/kg based on Pt-content) or HA (3.3 mg/kg) was dissolved in 100 mcL saline was injected subcutaneously peritumorally. […] In all study groups, a second dose was administered after 1 week. Tumor volumes were measured weekly using calipers and the formula: Volume=0.52×(width^2*length). Animals were euthanized when the tumor volume exceeded […] or the body score index fell below 2.

[2] = tested on: three aggressive human breast cancer cell lines; assay: Cell proliferation, Alamar blue assay, 72 hrs; type: cell-based; settings: breast cancer cells in culture
Description: The 10% w/w conjugate was applied to cells, and 72 hrs later, cell proliferation was determined using the Alamar blue assay (Invitrogen Corp.). […] Similarly, cisplatin conjugates were applied to breast cancer cells in culture. […] This may be due release of anticancer drugs from nanocarriers into the culture media, followed by uptake as with free drug.

[3] = tested on: MDA-MB-468LN; assay: Cell proliferation over 72 hrs, resazurin blue; type: cell-based, human
Description: Preceding proliferation studies, cells were trypsinized and seeded into 96-well plates (5,000 cells/well). […] After 4 hrs, well fluorescence was measured (λex 560 nm, λem 590 nm) using a fluorophotometer (SpectraMax Gemini; Molecular Devices, Sunnyvale, Calif.). IC50 was determined as the midpoint between saline (positive) and cell-free (negative) controls for each plate.

[4] = Long-term toxicology: pathological examination (H&E) at 30 days; type: in vivo, Sprague-Dawley rats; settings: for lymphoid tissue histology (H&E) / underlying tissue at injection site: 30 days post injection; for brain tissue histology (H&E) / kidney tissue histology (H&E) / liver tissue histology (H&E): 30 days post single injection
Description: Each animal was administered a single bolus dose at the beginning of the 30-day study period. […] In order to reduce the stress to animals, subjects were housed in metabolic cages for 12 hrs to collect approximately 5 ml of urine and then returned to cages with bedding until the next collection period. Urine samples were centrifuged at 17,000×g for 5 mins and stored in −80° C. freezer until creatinine analysis.
The animals were euthanized at the end of the study (30 days) and the liver, bilateral kidneys, spleen, lungs, heart, right (ipsilateral) and left (contralateral) axillary nodes, and brain were excised intact and stored in 80% alcoholic formalin solution overnight for fixation before slide mounting. Mounting using haematoxylin & eosin (H&E) staining were conducted by Veterinary Lab Resources (Kansas City, Kans.). The pathological examination was performed by a blinded board-certified veterinarian pathologist (University of Kansas Medical Center, Kansas City, Kans.).

[5] = Tissue distribution after subcutaneous cisplatin or cisplatin-HA into right mammary fat pad; type: in vivo, Sprague-Dawley rats
Description: Animals were allowed to recover with access to food and water. […] Organs and tissues were washed with 0.9% saline and frozen (−80° C.) until analysis. Plasma was separated by centrifugation from whole blood and frozen (−80° C.).
In vitro release samples (n=3) and plasma samples (n=5) were diluted 200-fold and 10-fold, respectively, with 0.1% nitric acid for analysis. […] Lymph nodes were processed similarly using 10 mg of tissue. After digestion, samples were homogenized (Tissue Tearor, BioSpec Products Inc., Bartlesville, Okla.). All samples were centrifuged (17 000×g, 20 min), and the supernate used for analysis.
Analysis was performed on a Varian SpectrAA GTA-110 with graphite furnace and partition tubes. Samples (21 μL) were injected using the autosampler, followed by 19 μL of 0.1% nitric acid. […] The furnace program was as follows: ramp 25 to 80° C., hold 2 s, ramp to 120° C., hold 10 s, ramp to 1000° C., hold 5 s, ramp to 2700° C., hold 2 s, cool to 25° C. over 20 s. The graphite partition tube was cleaned every 40 samples by baking at 2800° C. for 7 s. Argon was used as the injection and carrier gas.

**Q.** Which results are given for [PtCl(H2O)(NH3)2]OOCO-HA [HA-cisplatin]?
**A.** tumor growth delay compared to negative control group ([1]; 3.3 mg/kg (Pt) subcutaneously peritumorally, second dose after 1 week): 5 weeks; toxicity in treated tumor-bearing animals ([1]; 3.3 mg/kg subcutaneously peritumorally, two doses): no toxicity was observed; anticancer activity compared with free cisplatin [2]: not significantly different from free cisplatin; IC50 ([3]; HA carriers on a Pt-basis equivalent to cisplatin): 10 µg/mL; pIC50 ([3]; Pt-basis, read-out: IC50): 4.48; lymphoid tissue histology (H&E) ([4]; 1 mg/kg subcutaneous): normal findings; underlying tissue at injection site ([4]; 1 mg/kg subcutaneous): normal findings; brain tissue histology (H&E) ([4]; 1 mg/kg subcutaneous): normal findings; kidney tissue histology (H&E) ([4]; 1.0 mg/kg subcutaneous): normal appearance except for minimal renal tubular cell swelling and degeneration; liver tissue histology (H&E) ([4]; 1.0 mg/kg subcutaneous): Very mild changes; also recorded: normal appearance; lymphoid tissue histology (H&E) ([4]; 3.3 mg/kg subcutaneous): Very mild changes; also recorded: normal findings; underlying tissue at injection site ([4]; 3.3 mg/kg subcutaneous): normal findings; brain tissue histology (H&E) ([4]; 3.3 mg/kg subcutaneous): normal findings; kidney tissue histology (H&E) ([4]; 3.3 mg/kg subcutaneous): fairly normal appearance except for minor foci of tubular cell necrosis at the corticomedullary junction; liver tissue histology (H&E) ([4]; 3.3 mg/kg subcutaneous): Mild degeneration with some sinusoidal necroses; also recorded: fairly normal appearance except for very mild degeneration; animals diagnosed with mild renal necrosis ([4]; high dose (3.3 mg/kg) subcutaneous, 30 days, of 5): 20%; animals with renal necrosis ([4]; low dose (1.0 mg/kg) subcutaneous, 30 days): none; AUC in the right (draining axillary) lymph node, greater than cisplatin in saline ([5]; 96 hrs, subcutaneous, p=0.0001): 74%; AUC (0-96 hrs) ([5]; Bladder, subcutaneous into right mammary fatpad of female rats): 194.5 µg·h/g; AUC (0-96 hrs) ([5]; Brain, subcutaneous into right mammary fatpad): 343.7 µg·h/g; AUC (0-96 hrs) ([5]; Heart, subcutaneous into right mammary fatpad): 465.3 µg·h/g; AUC (0-96 hrs) ([5]; Kidneys, subcutaneous into right mammary fatpad): 668.6 µg·h/g; AUC (0-96 hrs) ([5]; Left lymph node (LLN), subcutaneous into right mammary fatpad): 413.4 µg·h/g; AUC (0-96 hrs) ([5]; Liver, subcutaneous into right mammary fatpad): 495.0 µg·h/g; AUC (0-96 hrs) ([5]; Lungs, subcutaneous into right mammary fatpad): 347.3 µg·h/g; AUC (0-96 hrs) ([5]; Muscle, subcutaneous into right mammary fatpad): 262.1 µg·h/g; AUC (0-96 hrs) ([5]; Plasma, subcutaneous into right mammary fatpad): 186.1 µg·h/g; AUC (0-96 hrs) ([5]; Right lymph node (RLN), subcutaneous into right mammary fatpad, p < 0.05): 776.0 ^† μg · hr/g; AUC (0-96 hrs) ([5]; Spleen, subcutaneous into right mammary fatpad): 383.4 µg·h/g; distribution of cisplatin to other organs vs cisplatin ([5]; over the study period): not significantly different over the study period; AUC in the non-draining left lymph node (LLN) vs cisplatin in saline ([5]; p=0.12): not significantly different from cisplatin in saline; plasma AUC, difference between cisplatin-HA and cisplatin ([5]; p=0.13): not a significant difference; serum Cmax ([5]; subcutaneous, 3.3 mg/kg cisplatin basis, FIG. 10B): less than 3 micrograms/mL; tolerability in rodents ([5]; subcutaneous, after 96 hours): well tolerated in rodents with no signs of injection site morbidity or major organ toxicity after 96 hours
